The record followed here is patent US20180171001A1.

Substitutions are numbered along the chain they refer to. Where only a bound is given, the exact number is not on record here.

B1: γ4κ3 (antibody, V domains shown)
VH: QIHLVQSGTEVKKPGSSVTVSCKAYGVNTFGLYAVNWVRQAPGQSLEYIGQIWRWKSSASHHFRGRVIISAVDLTGSSPPISPLEIKNLTSDDTAVYFCTTTSTSDRWSGLHHDGVMAFSSWGQGTLISVSA
VL: DIQMTQSPSTLSASIGDTVRISCRASQSITGNWLAWYHQRPGKAPRLLIYRGSRLLGGVPSRFSGSAAGTDFTLTIANLQAEDFGTFYCQQYDTYPGTFGQGTKVEVKR
B2: γ8κ11 (antibody, V domains shown)
VH: B1 VH with E10G, S45G, I68L, S82T, P83S, L89V, S105Y, R107K, H112Y
VL: B1 VL with I15V, D17G, N32G
B3: γ15κ3 (antibody, V domains shown)
VH: B1 VH with P83S, T102A, S105Y, R107K
VL: B1 VL
B4: γ20κ3 (antibody, V domains shown)
VH: B1 VH with T19A, H62D, P83S, T101A, S105P, R107Y
VL: B1 VL
B5: γ8κ3 (antibody, V domains shown)
VH: B1 VH with E10G, S45G, I68L, S82T, P83S, L89V, S105Y, R107K, H112Y
VL: B1 VL
B6: γ22κ3 (antibody, V domains shown)
VH: B1 VH with I68L, S77P, P83S, S105Y, R107K
VL: B1 VL
B7: γ46κ5 (antibody, V domains shown)
VH: B1 VH with S45G, I68L, P83S, L89V, S105Y, R107K, M117V
VL: B1 VL with I15T, L34V, H38Q, S53A, R54A, S64R, A77G
B8: γ15κ18 (antibody, V domains shown)
VH: B1 VH with P83S, T102A, S105Y, R107K
VL: B1 VL with I15V, N32G, T70A
B9: γ52κ3 (antibody, V domains shown)
VH: B1 VH with I68L, P83S, S105Y
VL: B1 VL
B10: 8ANC3040 (antibody, V domains shown)
VH: B1 VH with I68L, P83S, S105Y, R107Q
VL: B1 VL with L34V, H38Q, S53A, R54A, A77G

The target of one assay is Env of HIV-1 strain Du172.17 (HIV-1). Briefly: cell-based or functional assay.
Consider B1, for which the neutralization IC50 is > 15 µg/mL.

With B2, the neutralization IC50 is > 15 µg/mL.

Turning to B3, the neutralization IC50 is > 15 µg/mL.

B4: the neutralization IC50 is > 15 µg/mL.

Take B5: the neutralization IC50 is > 15 µg/mL.

As to B6, the neutralization IC50 is > 15 µg/mL.

Regarding B7, the neutralization IC50 was > 15 µg/mL.

On to B8, for which the neutralization IC50 is > 15 µg/mL.

As to B9, the neutralization IC50 is > 15 µg/mL.

A further assay addresses Env of HIV-1 strain ZM53M.PB12 (HIV-1). Briefly: cell-based or functional assay.
With B1, the neutralization IC50 is > 15 µg/mL.

In the case of B2, the neutralization IC50 is > 15 µg/mL.

Take B10: the neutralization IC50 stood at 14.9 µg/mL.

For the molecule B3, the neutralization IC50 is > 15 µg/mL.

As to B4, the neutralization IC50 is > 15 µg/mL.

For B5, the neutralization IC50 was > 15 µg/mL.

Regarding B6, the neutralization IC50 was > 15 µg/mL.

In the case of B7, the neutralization IC50 was found to be 12.4 µg/mL.

Take B8: the neutralization IC50 is > 15 µg/mL.

Take B9: the neutralization IC50 is > 15 µg/mL.

The next assay concerns the target Env of HIV-1 strain 250-4 (HIV-1). Briefly: cell-based or functional assay.
As to B1, the neutralization IC50 was > 15 µg/mL.

In the case of B2, the neutralization IC50 was > 15 µg/mL.

As for B3, the neutralization IC50 was > 15 µg/mL.

On to B4, for which the neutralization IC50 was > 15 µg/mL.

With B5, the neutralization IC50 is > 15 µg/mL.

B6: the neutralization IC50 is > 15 µg/mL.

On to B7, for which the neutralization IC50 is > 15 µg/mL.

With B8, the neutralization IC50 was > 15 µg/mL.

In the case of B9, the neutralization IC50 was > 15 µg/mL.

Another assay deals with Env of HIV-1 strain ZM109F.PB4 (HIV-1). Briefly: cell-based or functional assay.
With B1, the neutralization IC50 was > 15 µg/mL.

Consider B2, for which the neutralization IC50 is > 15 µg/mL.

With B3, the neutralization IC50 was > 15 µg/mL.

With B4, the neutralization IC50 was > 15 µg/mL.

As for B5, the neutralization IC50 was > 15 µg/mL.

B6: the neutralization IC50 is > 15 µg/mL.

For the molecule B7, the neutralization IC50 is > 15 µg/mL.

Take B8: the neutralization IC50 was > 15 µg/mL.

Regarding B9, the neutralization IC50 was > 15 µg/mL.

A further assay addresses Env of HIV-1 strain X1254_c3 (HIV-1). Briefly: cell-based or functional assay.
On to B1, for which the neutralization IC50 is 18 µg/mL.

The molecule B2 gave a neutralization IC50 of 4.14 µg/mL.

B10 yielded a neutralization IC50 of 2.91 µg/mL.

Consider B3, for which the neutralization IC50 is 3.49 µg/mL.

As to B4, the neutralization IC50 came to 14.7 µg/mL.

Consider B5, for which the neutralization IC50 was 4.01 µg/mL.

B6: the neutralization IC50 was > 15 µg/mL.

The molecule B7 displayed a neutralization IC50 of 1.79 µg/mL.

For the molecule B8, the neutralization IC50 came to 2.85 µg/mL.

For the molecule B9, the neutralization IC50 was > 15 µg/mL.

Another assay has as its target Env of MuLV. Briefly: cell-based or functional assay.
On to B10, for which the neutralization IC50 is > 30 µg/mL.

B3: the neutralization IC50 was > 30 µg/mL.

Regarding B4, the neutralization IC50 is > 21 µg/mL.

On to B5, for which the neutralization IC50 was > 18 µg/mL.

As for B9, the neutralization IC50 is > 30 µg/mL.

Another assay deals with Env of HIV-1 strain 231965.c1 (HIV-1). Briefly: cell-based or functional assay.
For the molecule B1, the neutralization IC50 is > 15 µg/mL.

Molecule B2 came in with a neutralization IC50 of 2.49 µg/mL.

Take B10: the neutralization IC50 is 1.17 µg/mL.

B3 gave a neutralization IC50 of 1.61 µg/mL.

As to B4, the neutralization IC50 was > 15 µg/mL.

Molecule B5 yielded a neutralization IC50 of 3.48 µg/mL.

For the molecule B6, the neutralization IC50 was > 15 µg/mL.

For the molecule B7, the neutralization IC50 amounted to 0.525 µg/mL.

B8 had a neutralization IC50 of 1.49 µg/mL.

The molecule B9 gave a neutralization IC50 of 6.59 µg/mL.

The target of a further assay is Env of HIV-1 strain 3016.v5.c45 (HIV-1). Briefly: cell-based or functional assay.
For B1, the neutralization IC50 is > 15 µg/mL.

For B2, the neutralization IC50 was determined as 2.46 µg/mL.

B10 returned a neutralization IC50 of 0.427 µg/mL.

For B3, the neutralization IC50 was 1.26 µg/mL.

B4: the neutralization IC50 was > 15 µg/mL.

The molecule B5 returned a neutralization IC50 of 2.38 µg/mL.

Take B6: the neutralization IC50 was > 15 µg/mL.

B7: the neutralization IC50 stood at 0.111 µg/mL.

As to B8, the neutralization IC50 was determined as 0.664 µg/mL.

On to B9, for which the neutralization IC50 worked out at 3.05 µg/mL.

The target of another assay is Env of HIV-1 strain REJO4541.67 (HIV-1). Briefly: cell-based or functional assay.
For the molecule B1, the neutralization IC50 is > 15 µg/mL.

For B2, the neutralization IC50 was > 15 µg/mL.

As to B10, the neutralization IC50 was found to be 0.198 µg/mL.

For B3, the neutralization IC50 was > 15 µg/mL.

On to B4, for which the neutralization IC50 was > 15 µg/mL.

In the case of B5, the neutralization IC50 was > 15 µg/mL.

For B6, the neutralization IC50 was > 15 µg/mL.

In turn, B7 came in with a neutralization IC50 of 0.196 µg/mL.

Regarding B8, the neutralization IC50 was > 15 µg/mL.

As for B9, the neutralization IC50 was > 15 µg/mL.

The next assay has as its target Env of HIV-1 strain 3365.v2.c20 (HIV-1). Briefly: cell-based or functional assay.
On to B1, for which the neutralization IC50 is > 15 µg/mL.

For the molecule B2, the neutralization IC50 was > 15 µg/mL.

With B10, the neutralization IC50 was > 25 µg/mL.

In the case of B3, the neutralization IC50 is > 15 µg/mL.

For the molecule B4, the neutralization IC50 was > 15 µg/mL.

For B5, the neutralization IC50 was > 15 µg/mL.

In the case of B6, the neutralization IC50 is > 15 µg/mL.

B7: the neutralization IC50 was > 15 µg/mL.

As for B8, the neutralization IC50 is > 15 µg/mL.

As for B9, the neutralization IC50 was > 15 µg/mL.

For another assay, the target named is Env of HIV-1 strain R1166.c1 (HIV-1). Briefly: cell-based or functional assay.
As to B1, the neutralization IC50 is > 15 µg/mL.

For the molecule B2, the neutralization IC50 was determined as 3.88 µg/mL.

B10 had a neutralization IC50 of 2.37 µg/mL.

On to B3, for which the neutralization IC50 came out at 3.94 µg/mL.

For the molecule B4, the neutralization IC50 was > 15 µg/mL.

Regarding B5, the neutralization IC50 was determined as 7.6 µg/mL.

As to B6, the neutralization IC50 was > 15 µg/mL.

For the molecule B7, the neutralization IC50 stood at 0.922 µg/mL.

As to B8, the neutralization IC50 was 1.99 µg/mL.

On to B9, for which the neutralization IC50 was 23.4 µg/mL.

A further assay has as its target Env of HIV-1 strain 3415.v1.c1 (HIV-1). Briefly: cell-based or functional assay.
With B1, the neutralization IC50 is > 15 µg/mL.

As for B2, the neutralization IC50 was > 15 µg/mL.

For the molecule B10, the neutralization IC50 was determined as 3.06 µg/mL.

With B3, the neutralization IC50 is > 15 µg/mL.

For the molecule B4, the neutralization IC50 is > 15 µg/mL.

Turning to B5, the neutralization IC50 is > 15 µg/mL.

As for B6, the neutralization IC50 was > 15 µg/mL.

B7: the neutralization IC50 was > 15 µg/mL.

On to B8, for which the neutralization IC50 is > 15 µg/mL.

As to B9, the neutralization IC50 was > 15 µg/mL.

A further assay has as its target Env of HIV-1 strain PVO.4 (HIV-1). Briefly: cell-based or functional assay.
In the case of B1, the neutralization IC50 was > 15 µg/mL.

In turn, B2 gave a neutralization IC50 of 8.16 µg/mL.

Molecule B10 registered a neutralization IC50 of 0.284 µg/mL.

B3 had a neutralization IC50 of 5.32 µg/mL.

B4: the neutralization IC50 is > 15 µg/mL.

With B5, the neutralization IC50 is > 15 µg/mL.

As for B6, the neutralization IC50 was > 15 µg/mL.

Turning to B7, the neutralization IC50 was found to be 0.129 µg/mL.

For B8, the neutralization IC50 is 1.59 µg/mL.

On to B9, for which the neutralization IC50 is 1.92 µg/mL.

A further assay deals with Env of HIV-1 strain 251-18 (HIV-1). Briefly: cell-based or functional assay.
For the molecule B1, the neutralization IC50 was > 15 µg/mL.

In the case of B2, the neutralization IC50 is > 15 µg/mL.

With B10, the neutralization IC50 was 0.571 µg/mL.

B3: the neutralization IC50 was > 15 µg/mL.

B4: the neutralization IC50 is > 15 µg/mL.

Regarding B5, the neutralization IC50 was > 15 µg/mL.

Consider B6, for which the neutralization IC50 was > 15 µg/mL.

Consider B7, for which the neutralization IC50 worked out at 0.609 µg/mL.

On to B8, for which the neutralization IC50 is > 15 µg/mL.

B9 displayed a neutralization IC50 of 14.5 µg/mL.

In a further assay the target is Env of HIV-1 strain YU2.DG (HIV-1). Briefly: cell-based or functional assay.
As to B1, the neutralization IC50 is > 15 µg/mL.

Regarding B2, the neutralization IC50 amounted to 9.35 µg/mL.

In turn, B10 came in with a neutralization IC50 of 0.617 µg/mL.

In turn, B3 returned a neutralization IC50 of 1.07 µg/mL.

Take B4: the neutralization IC50 was > 15 µg/mL.

Consider B5, for which the neutralization IC50 turned out to be 5.41 µg/mL.

Consider B6, for which the neutralization IC50 was > 15 µg/mL.

B7 returned a neutralization IC50 of 0.553 µg/mL.

Turning to B8, the neutralization IC50 is 1.17 µg/mL.

With B9, the neutralization IC50 came to 5.75 µg/mL.

The next assay has as its target Env of HIV-1 strain H086.8 (HIV-1). Briefly: cell-based or functional assay.
Regarding B1, the neutralization IC50 is > 15 µg/mL.

Take B2: the neutralization IC50 is > 15 µg/mL.

For the molecule B3, the neutralization IC50 was > 15 µg/mL.

On to B4, for which the neutralization IC50 was > 15 µg/mL.

Take B5: the neutralization IC50 was > 15 µg/mL.

Regarding B6, the neutralization IC50 is > 15 µg/mL.

In the case of B7, the neutralization IC50 was 1.75 µg/mL.

Turning to B8, the neutralization IC50 is > 15 µg/mL.

Take B9: the neutralization IC50 was > 15 µg/mL.
